Measured values: patent US10253087B2, “CCR2 antagonist peptides” (UNIVERSITE PIERRE ET MARIE CURIE (Paris 6), priority 2011, dated 2019)
Entries after “also recorded” stand apart in the source; their conditions may differ. Like-named read-outs stand apart in the source and are kept apart here. Values belong to the compound of their own block, whether it stands above or below them. Non-standard residues stand in square brackets, D forms with d. Residues, ends and D or L forms follow the SMILES beside them.

Columns and labels:
HEK-CCR2 [1] = experiment: Cytotoxicity on HEK-CCR2; settings: 4 hours of incubation at 37° C., 5% CO2, various concentrations
CCR2 [2] = biological target: T1, CCR2 (Homo sapiens, UniProt P41597); experiment: CCL2-Alexa 647 binding assay on HEK-CCR2; settings: competition binding
T1 construct: expressed in transfected cells
Method: Binding was performed with the same cells. 200.000 cells were pre-incubated for 30 minutes at 4° C. in 100 μl buffer (PBS containing 0.5% BSA, 0.2% EDTA and NaN3 0.01%) with recombinant human CCL2 (50 nM, 100 nM and 500 nM), ECL1 (C) inverso (11.3 μM, 28.2 μM and 56.3 μM) or with buffer. After, 50 nM CCL2-alexa 647 (Almac) were add for 30 minutes at 4° C. and washed three times with 1 ml of cold buffer. Cells were incubated with 10 μl anti-human-CCR2 (BD pharmingen) for 30 minutes at 4° C. in the dark and washed three times with 1 ml of cold buffer. Cells and beads were counted on FACSCalibur flow cytometer and data were analysed with FlowJo software.

CCR2 [3] = biological target: T1, CCR2; experiment: Radioligand binding assay, I125-CCL2 on HEK-CCR2; settings: competition binding
Method: Binding assay was carried out using I125-CCL2 (specific activity 2200 Ci/mmol; Perkin elmer, inc.). 300.000 HEK cells stably expressing CCR2 and native cells were incubated with I125-CCL2 in the presence or absence of recombinant human CCL2 (10 nM or 100 nM) or ECL1 (C) inverso (1-10-30 μM) in 200 μl buffer (PBS containing 0.5% BSA and 0.01% HEPES). After 1 h incubation at 37° C., cells were washed three times with 1 ml of cold washing solution. Gamma emissions were then counted in the cell pellet with gamma counter. Non-specific binding represented less than 15% of total binding and was subtracted from total binding to define specific I125-CCL2 binding.

CCR2 [4] = biological target: T1, CCR2; experiment: Calcium flux assay, CCL2-induced calcium release on HEK-CCR2; format: cell-based
Method: Cytosolic-free calcium assay was measured by fluorescent detection with the HitHunter™ Calcium No WashPLUS (Ca NWPLUS) assay kit (DiscoveRex, #90-0091). Briefly, HEK or CHO expressing the chemokine receptor of interest (5.104) were plated overnight at 37° C., 5% CO2 before pre-loading with a calcium sensitive dye (Ca NWPLUS working reagent) supplemented with probenecid (Sigma-Aldrich, #P8761) to avoid calcium dye leakage from the cells, for 1 h at 37° C. Cells were then treated with control buffer or peptides at various concentrations and appropriate agonist. Signal was measured as function of time on a fluorescent plate reader equipped with fluidic handling (FlexStation 3, Molecular Devices). Maximum change in fluorescence over baseline (peak signal) was used to determine agonist response, as quantified using SoftMax Pro software. All experiments were run in triplicate, and results are representative of at least three independent experiments.

CCR2 [5] = biological target: T1, CCR2; experiment: β-arrestin recruitment assay (PathHunter), CCL2-induced; format: cell-based; settings: HEK-CCR2
Method: Recruitment of β-arrestin in live cells was measured by chemoluminescence detection with the PathHunter™ eXpress β-Arrestin assay kit (DiscoveRex, #93-00446E1). Briefly, 100 μL PathHunter eXpress cells were expressing CCR2 were plated on a 96-well tissue culture treated plate for 48 hours at 37° C., 5% CO2. Cells were first incubated with ECL1 (C) inverso or control peptide and before adding 10 μL of the agonist, CCL2 diluted in OCC medium to achieve the EC80 determined beforehand or with OCC medium alone, for respectively 60 and 90 min at 37° C., 5% CO2. The reaction was stopped by adding 55 μL of the Working Detection Reagent Solution (PathHunter detection reagent) for 90 min at Room temperature. Chemoluminescent signal was read on a luminescent plate reader (TriStar LB 941, Berthold Technologies, Thoiry, France). Assays were run in triplicates.

HEK-CCR2 [6] = tested on: HEK-CCR2
CCR2 [7] = biological target: T1, CCR2; experiment: Migration assay, HEK-CCR2 induced by CCL2; format: cell-based; settings: up to 500 μM
Method: (§1) Migration assays were performed in 24-transwell inserts (Corning Costar Avon, France) with 8 μm polycarbonate filter for HEK or CHO cells and 5 μm for MBMC. […] The bottom of each well was filled with 600 μL pre-warmed chemotaxis buffer at indicated chemokine concentration. The plates were then incubated for 4 hours at 37° C. in a 5% CO2 atmosphere. […] Before counting the cells by flow cytometry, mouse leukocytes were immunophenotyped with a mix of fluorescent antibodies (anti-mouse Ly6G-PE, anti-mouse NK1.1-PE, anti-mouse […], anti-mouse 7/4-FITC, BD Biosciences) and HEK expressing chemokine receptors with appropriate fluorescent anti-human chemokine receptor. Data were analysed with FlowJo software and results are expressed as a number of cells migrating in the presence or in the absence of chemoattractant. Experiments were run in triplicate, and results are representative of at least three independent experiments.

CCR5 = biological target: T2, CCR5 (Homo sapiens, UniProt P51681); experiment: Migration assay, HEK-CCR5 induced by CCL5; format: cell-based; settings: up to 500 μM
T2 construct: expressed in transfected cells
Method: as §1

mouse monocytes = experiment: Migration assay, mouse monocytes / leukocytes (MBMC); format: cell-based; settings: up to 500 μM
Method: as §1

CX3CR1 = biological target: T3, CX3CR1 (Homo sapiens, UniProt P49238); experiment: Migration assay, HEK-CX3CR1 induced by CX3CL1; format: cell-based; settings: up to 500 μM
T3 construct: expressed in transfected cells
T3 sequence (P49238 1-355): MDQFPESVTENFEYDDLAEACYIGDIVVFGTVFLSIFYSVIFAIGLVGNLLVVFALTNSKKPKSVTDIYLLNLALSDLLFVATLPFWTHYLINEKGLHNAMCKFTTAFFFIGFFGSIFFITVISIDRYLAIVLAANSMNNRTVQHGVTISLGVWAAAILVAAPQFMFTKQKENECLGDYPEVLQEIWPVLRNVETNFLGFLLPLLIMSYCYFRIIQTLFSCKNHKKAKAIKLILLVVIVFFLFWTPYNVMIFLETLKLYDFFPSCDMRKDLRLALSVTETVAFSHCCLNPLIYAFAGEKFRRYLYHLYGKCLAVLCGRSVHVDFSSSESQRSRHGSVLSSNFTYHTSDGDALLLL
Method: as §1

T1 sequence (P41597 whole entry): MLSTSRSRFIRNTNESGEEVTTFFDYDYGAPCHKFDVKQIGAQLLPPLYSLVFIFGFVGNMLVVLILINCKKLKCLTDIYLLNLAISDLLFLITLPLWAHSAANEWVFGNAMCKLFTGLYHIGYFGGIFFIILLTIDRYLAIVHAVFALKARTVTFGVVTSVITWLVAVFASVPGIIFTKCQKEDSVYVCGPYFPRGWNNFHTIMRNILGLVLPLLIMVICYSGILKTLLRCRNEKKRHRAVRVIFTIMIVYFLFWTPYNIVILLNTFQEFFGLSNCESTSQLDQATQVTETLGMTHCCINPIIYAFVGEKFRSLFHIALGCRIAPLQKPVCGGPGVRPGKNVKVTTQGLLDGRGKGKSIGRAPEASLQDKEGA
T2 sequence (P51681 whole entry): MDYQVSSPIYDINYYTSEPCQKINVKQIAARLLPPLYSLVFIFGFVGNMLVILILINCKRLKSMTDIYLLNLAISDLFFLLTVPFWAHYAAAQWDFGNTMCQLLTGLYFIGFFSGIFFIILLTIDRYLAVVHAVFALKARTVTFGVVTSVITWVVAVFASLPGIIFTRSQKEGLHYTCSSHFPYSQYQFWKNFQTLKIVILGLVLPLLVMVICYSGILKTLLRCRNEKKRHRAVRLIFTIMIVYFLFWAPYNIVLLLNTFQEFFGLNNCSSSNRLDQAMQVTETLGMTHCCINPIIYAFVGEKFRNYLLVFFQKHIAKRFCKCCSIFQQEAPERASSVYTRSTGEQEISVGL
Method for MBCM: Mouse bone marrow cells (MBMC) were obtained from C57BL/6 mice.
Cells were immunophenotyped by adding a mix of fluorescent antibodies (anti LY-6G-PE, anti CD11b-PerCP, anti 7/4-FITC, anti F4/80-APC, anti NK-PE) and counted by FACSCalibur flow cytometry with predetermined number of beads (Polybead, carboxylate microsphere Polyscience, Inc) added to the samples. Data were analyzed with FlowJo.

Compound: CC(C)C[C@@H](N)C(=O)NCC(=O)N[C@@H](C(=O)N[C@H](Cc1ccccc1)C(=O)N[C@H](CC(C)C)C(=O)N[C@H](CCCCN)C(=O)N[C@H](CS)C(=O)O)[C@H](C)O [ECL1 (C) inverso, LGTFLKC] (H-[dL]G[dT][dF][dL][dK][dC]-OH; N-terminus and C-terminus assumed)
cytotoxicity on HEK-CCR2 (HEK-CCR2 [1]): No cytotoxicity effect

displacement of bound [125I]-CCL2 on HEK-CCR2 (CCR2 [3]): could displace dose-dependently
EC80 of CCL2 for calcium release (CCR2 [4]): 50 nM
EC80 of CCL2 for β-arrestin recruitment (CCR2 [5]): 12.5 nM
Compound: CCL2: chemokine, natural agonist of CCR2
displacement of the binding of CCL2-Alexa-647 with HEK-CCR2 (CCR2 [2]): could displace dose-dependently; also recorded: displaces dose-dependently

induction of chemotaxis by the peptide itself, HEK-CCR2 (CCR2 [7]): did not induced chemotaxis
induction of chemotaxis by the peptide itself, HEK-CCR5 (CCR5): did not induced chemotaxis
induction of chemotaxis by the peptide itself, HEK-CX3CR1 (CX3CR1): did not induced chemotaxis
Compound: CKLFTGL [ECL1 (C), peptide from extracellular juxtamembranous region of CCR2]
cytotoxicity on HEK-CCR2 (HEK-CCR2 [6]): no significant cell death
cytotoxicity on MBCM (MBCM): no significant cell death
induction of chemotaxis by the peptide itself, mouse leukocytes (mouse monocytes): did not induced chemotaxis
